The target in the test is rat TRPV1, full-length channel expressed in HEK293 cells (rat) (UniProt O35433).
Sequence of rat TRPV1, full-length channel expressed in HEK293 cells (rat) (O35433 whole entry): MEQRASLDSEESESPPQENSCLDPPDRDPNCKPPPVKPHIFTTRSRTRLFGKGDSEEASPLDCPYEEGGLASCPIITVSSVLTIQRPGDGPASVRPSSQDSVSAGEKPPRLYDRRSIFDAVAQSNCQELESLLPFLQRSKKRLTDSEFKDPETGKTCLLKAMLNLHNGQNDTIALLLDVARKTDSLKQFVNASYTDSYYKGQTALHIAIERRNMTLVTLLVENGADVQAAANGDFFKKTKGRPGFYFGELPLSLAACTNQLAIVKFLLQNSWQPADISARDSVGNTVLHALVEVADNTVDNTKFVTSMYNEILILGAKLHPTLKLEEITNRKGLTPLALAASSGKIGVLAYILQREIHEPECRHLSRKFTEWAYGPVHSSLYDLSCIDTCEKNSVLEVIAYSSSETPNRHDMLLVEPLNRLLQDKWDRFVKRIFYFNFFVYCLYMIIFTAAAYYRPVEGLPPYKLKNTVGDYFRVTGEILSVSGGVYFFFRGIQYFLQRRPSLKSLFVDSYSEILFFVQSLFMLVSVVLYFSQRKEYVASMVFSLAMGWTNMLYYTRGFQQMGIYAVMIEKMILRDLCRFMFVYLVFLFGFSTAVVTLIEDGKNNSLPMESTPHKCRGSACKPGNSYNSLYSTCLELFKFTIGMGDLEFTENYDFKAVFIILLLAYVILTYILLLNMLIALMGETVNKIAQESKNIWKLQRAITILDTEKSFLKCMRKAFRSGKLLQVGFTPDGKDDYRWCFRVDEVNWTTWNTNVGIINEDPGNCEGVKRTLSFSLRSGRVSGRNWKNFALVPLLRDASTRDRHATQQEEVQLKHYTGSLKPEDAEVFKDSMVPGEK

B1: bivalent K1 (K1K1) (protein)
chain: GDCAKEGEVCSWGKKCCDLDNFYCPMEFIPHCKKYKPYVPVTTDCAKEGEVCSWGKKCCDLDNFYCPMEFIPHCKKYK
Consider B1, for which the fractional dissociation 1 min after toxin removal (current 1 min after removal divided by steady-state current with toxin), whole-cell patch clamp at +120 mV, TRPV1 in HEK cells stood at 0.3.

B2: bivalent K2 (K2K2) (protein)
chain: NCAKEGEVCGWGSKCCHGLDCPLAFIPYCEKYRPYVPVTTNCAKEGEVCGWGSKCCHGLDCPLAFIPYCEK
Molecule B2 displayed a fractional dissociation 1 min after toxin removal (current 1 min after removal divided by steady-state current with toxin), whole-cell patch clamp at +120 mV, TRPV1 in HEK cells of 0.96.

The values are drawn from paper PMC4764579, “Structural insights into the mechanism of activation of the TRPV1 channel by a membrane-bound tarantula toxin” (eLife, 2016).
